Results from patent US20150064789.

How the values were obtained:
Assay in all cases: cell_activity
[1] = test system: CCR5 ZFN pair, wild-type ZC linker (8266 with partner) (artificial); conditions: average of 2
[2] = test system: CCR5 ZFN pair, L6a linker (artificial); conditions: average of 2
[3] = test system: CCR5 ZFN pair, L7a linker (artificial); conditions: average of 2
[4] = test system: mROSA ZFN pair, Wt/Wt linkers (artificial); conditions: Neuro2A, CEL-I; replicates 23.2, 18.7; mock 0.4
[5] = test system: mROSA ZFN pair, Wt/L7a linkers (artificial); conditions: Neuro2A, CEL-I; mock 0.4
[6] = test system: rat IgM ZFN pair, ZC linkers (artificial); conditions: rat C6 cells, CEL-I
[7] = test system: rat IgM ZFN pair, L7a linker (artificial); conditions: rat C6 cells, CEL-I

Row | Substance | activity [1] | activity [2] | activity [3] | other results
1 | CCR5 target, 4 bp gap | 1.2 % NHEJ | – | – | –
2 | CCR5 target, 5 bp gap | 35 % NHEJ | 39.3 % NHEJ | – | –
3 | CCR5 target, 6 bp gap | 11.1 % NHEJ | 25.4 % NHEJ | 31.8 % NHEJ | –
4 | GTCATCCTCATCCTGAGTTTAAACTGCAAAAG (double strand) [CCR5 target, 8 bp gap] | – | – | 6.1 % NHEJ | –
5 | GTCATCCTCATCCTGGTTTAAACTGCAAAAG (double strand) [CCR5 target, 7 bp gap] | – | 5.1 % NHEJ | 39.6 % NHEJ | –
6 | mROSA target, 6 bp gap | – | – | – | activity [4]: 22.6 % NHEJ; activity [5]: 7.5 % NHEJ
7 | rat IgM target, 6 bp gap | – | – | – | activity [6]: 1.93 % NHEJ; activity [7]: 2.43 % NHEJ
